Data taken from patent US20160040149A1, “Compositions Having Dicamba Decarboxylase Activity and Methods of Use” (priority 2013, published 2016).

Assay: DNA shuffling libraries: 14CO2 capturing assay in 384-well format, fold activity of backbone (Megatable 2)
Settings: relative to backbone SEQ ID NO: 509 (DDEC0810)

B1: 573 (protein)
chain: MAQGLVALEEHFAIPETLNDAAGFVPGDYWKELQHRLLDIQDTRLKEMDKHGIGTMVLSLAAPAVQAIPDRRKAIEIARRANDFLAEEVAKRPDRFLAFAALPMQDVDAATEELQRCVNDLGFVGAMVNGFSQEGDGQTPLYYDLPQYRPFWKEVEKLDVPFYLHPRNPLPQDSRIYDGHPWLLGPTWAFAQETAVHALRLMASGLFDEHPRLNIILGHLGEGLPYMMYRIDHRIAWVKAPPDYPAKRRFMDYFLENFHITTSGNFRTQTLIDAILEIGADRILFSTDWPFENIDHAADWFAATSIAEADRVKIGRTNARRLFKLDVR
modifications: Dicamba decarboxylase variant
- Fold Activity: 0.8 fold

B2: 574 (protein)
chain: MAQGLVALEEHFAIPETLQDAAGFVPGDYWKELQHRLLDIQDTRLKEMDKHGIGTMILSLAAPAVQAIPDRRKAIEIARRANDFLAEEVAKRPDRFLAFAALPLQDVDAATEELQRCVADLGFVGAMVNGFSQEGDGQTPLYYDLPQYRPFWKEVEKLDVPFYLHPRNPLPQDSRIYDGHPWLLGPTWAFAQETAVHALRLMASGLFDEHPRLNIILGHLGEGLPYMMYRIDHRIAWVKAPPDYPAKRRFMDYFLENFHITTSGNFRTQTLIDAILEIGADRILFSTDWPFENIDHAADWFNATSIAEADRVKIGRTNARRLFKLDGS
modifications: Dicamba decarboxylase variant
- Fold Activity: 1.1 fold

B3: 575 (protein)
chain: MAQGLVALEEHFAIPETLQDAAGFVPGDYWKELQHRLLDIQDTRLKEMDKHGIGTMILSLAAPAVQAIPDRRKAIELARRANDFLAEEVAKRPDRFLAFAALPLQDVDAATSELQRCVADLGFVGAMVNGFSQEGDGQTPLYYDLPQYRPFWKEVEKLDVPFYLHPRNPLPQDARIYDGHPWLLGPTWAFAQETAVHALRLMASGLFDEHPRLNIILGHLGEGLPYMMYRIDHRIAWVHATPRYPAKRRFMDYFLENFHITTSGNFRTQTLIDAILEIGADRILFSTDWPFENIDHAADWFNATSIAEADRVKIGRTNARRLFKLDVR
modifications: Dicamba decarboxylase variant
- Fold Activity: 1.3 fold

B4: 576 (protein)
chain: MAQGLVALEEHFAIPETLQDAAGFVPGDYWKELQHRLLDIQDTRLKEMDKHGIGTMVLSLAAPAVQAIPDRRKAIEIARRANDFLAEEVAKRPDRFLAFAALPLQDVDAATEELQRCVADLGFVGAMVNGFSQEGDGQTPLYYDLPQYRPFWGEVEKLDVPFYLHPRNPLPQDARIYDGHPWLLGPTWAFAQETAVHALRLMASGLFDEHPRLNIILGHLGEGLPYMMYRIDHRIAWVEAPPDYPAKRRFMDYFLENFHITTSGNFRTQTLIDAILEIGADRILFSTDWPFENIDHAADWFAATSIAEADRVKIGRTNARRLFKLDGR
modifications: Dicamba decarboxylase variant
- Fold Activity: 1.2 fold

B5: 577 (protein)
chain: MAQGLVALEEHFAIPETLNDAAGFVPGDYWKELQHRLLDIQDERLKEMDKHGIGTMILSLAAPAVQAIPDRRKAIEIAKRANDFLAEEVAKRPDRFLAFAALPLQDVDAATEELQRCVADLGFVGAMVNGFSQEGDGQTPLYYDLPQYRPFWKEVEKLDVPFYLHPRNPLPQDSRIYDGHPWLLGPTWAFAQETAVHALRLMASGLFDEHPRLNIILGHMGEGLPYMMYRIDHRIAWVKAPPRYPAKRRFMDYFLENFWITTSGNFRTQTLIDAILEIGADRILFSTDWPFENIDHAADWFAATSIAEADRVKIGRTNARRLFKLDVS
modifications: Dicamba decarboxylase variant
- Fold Activity: 1.2 fold

B6: 578 (protein)
chain: MAQGLVALEEHFAIPETLQDAAGFVPGDYWKELQHRLLDMQDERLKEMDRHGIGTMVLSLAAPAVQAIPDRRKAIEIARRANDFLAEEVAKRPDRFLAFAALPLQDVDAATEELQRCVNDLGFVGAMVNGFSQEGDGQTPLYYDLPQYRPFWGEVEKLDVPFYLHPRNPLPQDSRIYDGHPWLLGPTWAFAQETAVHALRLMASGLFDEHPRLNIILGHLGEGLPYMMYRIDHRIAWVKAPPDYPAKRRFMDYFLENFWITTSGNFRTQTLIDAILEIGADRILFSTDWPFENIDHAADWFAATSIAEADRVKIGRTNARNLFKLDGR
modifications: Dicamba decarboxylase variant
- Fold Activity: 0.9 fold

B7: 579 (protein)
chain: MAQGLVALEEHFAIPETLNDAAGFVPGDYWKELQHRLLDIQDTRLKEMDKHEIGTMVLSLAAPAVQAIPDRRQAIELAKRANDFLAEEVAKRPDRFLAFAALPLQDVEAATEELQRCVADLGFVGAMVNGFSQEGDGQTPLYYDLPQYRPFWKEVEKLDVPFYLHPRNPLPQDSRIYDGHPWLLGPTWAFAQETAVHALRLMASGLFDEHPRLNIILGHMGEGLPYMMYRIDHRIAWVKAPPDYPAKRRFMDYFLENFHITTSGNFRTQTLIDAILEIGADRILFSTDWPFENIDHAADWFNATSIAEADRVKIGRTNARRLFKLDGS
modifications: Dicamba decarboxylase variant
- Fold Activity: 1.0 fold

B8: 580 (protein)
chain: MAQGLVALEEHFAIPETLNDAAGFVPGDYWKELQHRLLDIQDTRLKEMDKHEIGTMVLSLAAPAVQAIPDRRQAIELARRANDFLAEEVAKRPDRFLAFAALPLQDPDAATEELQRCVADLGFVGAMVNGFSQEGDGQTPLYYDLPQYRPFWGEVEKLDVPFYLHPRNPLPQDARIYDGHPWLLGPTWAFAQETAVHALRLMASGLFDEHPRLNIILGHMGEGLPYMMYRIDHRIAWVKAPPRYPAKRRFMDYFLENFHITTSGNFRTQTLIDAILEIGADRILFSTDWPFENIDHAADWFAATSIAEADRVKIGRTNARRLFKLDGR
modifications: Dicamba decarboxylase variant
- Fold Activity: 1.3 fold

B9: 581 (protein)
chain: MAQGLVALEEHFAIPETLQDAAGFVPGDYWKELQHRLLDIQDTRLKEMDKHEIGTMVLSLAAPAVQAIPDRRKAIELAKRANDFLAEEVAKRPDRFLAFAALPLQDVDAATSELQRCVADLGFVGAMVNGFSQEGDGQTPLYYDLPQYRPFWKEVEKLDVPFYLHPRNPLPQDARIYDGHPWLLGPTWAFAQETAVHALRLMASGLFDEHPRLNIILGHMGEGLPYMMYRIDHRIAWVKAPPDYPAKRRFMDYFLENFHITTSGNFRTQTLIDAILEIGADRILFSTDWPFENIDHAADWFAATSIAEADRVKIGRTNARRLFKLDGS
modifications: Dicamba decarboxylase variant
- Fold Activity: 1.1 fold

B10: 582 (protein)
chain: MAQGLVALEEHFAIPETLNDAAGFVPGDYWKELQHRLMDIQDTRLKEMDKHEIGTMVLSLAAPAVQAIPDRRKAIEIARRANDFLAEEVAKRPDRFLAFAALPLQDPDAATEELQRCVNDLGFVGAMVNGFSQEGDGQTPLYYDLPQYRPFWGEVEKLDVPFYLHPRNPLPQDARIYDGHPWLLGPTWAFAQETAVHALRLMASGLFDEHPRLNIILGHMGEGLPYMMYRIDHRIAWVKAPPDYPAKRRFMDYFLENFHITTSGNFRTQTLIDAILEIGADRILFSTDWPFENIDHAADWFNATSIAEADRVKIGRTNARRLFKLDGS
modifications: Dicamba decarboxylase variant
- Fold Activity: 1.4 fold

B11: 583 (protein)
chain: MAQGKVALEEHFAIPETLQDAAGFVPGDYWKELQHRLLDIQDTRLKEMDKHEIGTMILSLAAPAVQGIPDRRKAIELAKRANDFLAEEVAKRPDRFLAFAALPLQDPEAATEELQRCVNDLGFVGAMVNGFSQEGDGQTPLYYDLPQYRPFWKEVEKLDVPFYLHPRNPLPQDSRIYDGHPWLLGPTWAFAQETAVHALRLMASGLFDEHPRLNIILGHLGEGLPYMMYRIDHRIAWVKAPPRYPAKRRFMDYFLENFWITTSGNFRTQTLIDAILEIGADRILFSTDWPFENIDHAADWFAATSIAEADRVKIGRTNARRLFKLDVR
modifications: Dicamba decarboxylase variant
- Fold Activity: 1.0 fold
